Assay results taken from US20230105209A1 (ACADEMIA SINICA, published 2023).

Molecular target: SARS-CoV-2 spike S2 (SARS-CoV-2, UniProt P0DTC2 686-1213)
Test: ELISA

B1: m31A7 monoclonal antibody (chimeric IgG1) (antibody, V domains shown)
VH: EVQLQQSGPEMVKPGASVKISCKTSGYTFTEYTIYWVKQSHGKSLEWLGGINPNIGDTTYNQKFKGKATLTVDTSSSTAYMELRSLTSEDSAVYYCAREVYNYSFAYWGQGTLVTVSA
VL: DIVMSQSPSSLAVSVGEKVTMSCKSSQSLLYSSNQKNYLAWYQQKLGQTPKLLIYWASSRESGVPDRFTGSGSGTDFTLTISSVRAEDLAVYYCQQYYRYPLTFGVGTKLELKR
notes: also called m31A7 mAb; m31A7 IgG
- binding result: no binding
